What was measured:
in vivo = experiment: in vivo; parameters: species or system mice; settings: female, athymic nu/nu nude, mouse, total radioactivity
U87MG gliobastoma tumors = experiment: in vivo; parameters: species or system mice; settings: mouse

N=C(N)NCCC[C@@H]1NC(=O)[C@H](CCCCNC(=S)Nc2ccc(CCCCCC(CN3CCN(CC(=O)O)CCN(CC(=O)O)CC3)N(CC(=O)O)CC(=O)O)cc2)NC(=O)[C@@H](Cc2ccc(O)cc2)NC(=O)[C@H](CC(=O)O)NC(=O)CNC1=O (stereo partly shown) [^177Lu-5p-C-NETA-c(RGDyK), metal not drawn]
tissue uptake at 4 h (in vivo; 100 ug, Tumor uptake, blocked): 0.6 ± 0.14 %ID/g
tissue uptake at 1 h (in vivo; Liver uptake): 1.59 ± 0.22 %ID/g
tissue uptake at 24 h (in vivo; Liver uptake): 0.32 ± 0.06 %ID/g
tissue uptake at 1 h (in vivo; Radioactivity in the blood): 0.46 ± 0.06 %ID/g
tissue uptake at 4 h (in vivo; Tumor uptake): 1.15 ± 0.27 %ID/g
tissue uptake at 24 h (in vivo; Tumor uptake): 10.7 ± 0.38 %ID/g
Radioactivity in the blood (U87MG gliobastoma tumors): completely cleared
